Measurements published in the supplement of paper PMC12764529.
± gives the half width of the 95% confidence interval.

Key:
[1] = folding stability dG unfold (combined trypsin and chymotrypsin); higher = more stable
Outline: (§1)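 Bayesian fitting of sequencing counts gave K50 for each design. Unfolding free energy followed by setting this against a sequence-predicted unfolded-state K50 and a shared folded-state K50, either per protease or with trypsin and chymotrypsin combined. The designs, under 80 residues and lacking cysteine, were digested in a PA-tagged cDNA display format at 11 threefold-diluted protease concentrations and without protease, and only those with AlphaFold2 dimer inter-PAE above 15 were kept.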

[2] = folding stability dG unfold from trypsin proteolysis; higher = more stable
Outline: as §1

[3] = folding stability dG unfold from chymotrypsin proteolysis; higher = more stable
Outline: as §1

Sequence | folding stability dG unfold [1] | folding stability dG unfold [2] | folding stability dG unfold [3]
SAGGSAGLEGVAKAILDKLPPNRKIAAFTVNEEEAKTATFTTPDGNEINITAAGDKIASIDIIDAESAGGSA [r15_175_TrMRF] | 0.0224 ± 0.1 kcal/mol | -1.09 ± 0.51 kcal/mol | 0.429 ± 0.19 kcal/mol
SAGGSAGLRVRLADGSELSVSPIPDKLRVVVTLPNGARIPIDVEDGELVEIVRDPAVPADFYIEEISAGGSA [r15_709_JUSTAS] | 1.06 ± 0.1 kcal/mol | 0.419 ± 0.14 kcal/mol | 1.25 ± 0.043 kcal/mol
SAGGSAGLTLTFGDKEITLTPNPDTDTFTGTYPDGKPFTFKLTDDELYITYPDGTKEKIPLKDIKNSAGGSA [r15_448_TrMRF] | 1.54 ± 0.21 kcal/mol | 1.58 ± 0.066 kcal/mol | 1.42 ± 0.17 kcal/mol
SAGGSAGMELVPLPSPQLVPLTVETTPLPETGTTLVTETSPLGERTVTRVDPAGNVTTLSSTSTSTSAGGSA [r15_790_JUSTAS] | -0.226 ± 0.12 kcal/mol | -0.389 ± 0.033 kcal/mol | -0.192 ± 0.12 kcal/mol
SAGGSAGMMATKPVEVEVEIPPDDPEAAKERVEAEIKAAFPGPVEVETTSYDPEKGLLKVKVVIKKSAGGSA [r15_1024_JUSTAS] | 0.256 ± 0.33 kcal/mol | -0.497 ± 0.41 kcal/mol | 0.0964 ± 0.19 kcal/mol
SAGGSAGMMTDVEVEEYPGTGLVRITIRTPDAVVSGEGRFLSPELLEITISFPGAGKRTNELIPVRSAGGSA [r15_837_JUSTAS] | 1.2 ± 0.088 kcal/mol | 1.23 ± 0.072 kcal/mol | 1.26 ± 0.048 kcal/mol
SAGGSAGMPDPPLEGLKEALREALAANPGEEVTLTVPRADGRTLTVRGTKDGGIEITLPDGTRIALSAGGSA [r15_73_JUSTAS] | 1.58 ± 0.072 kcal/mol | 1.58 ± 0.036 kcal/mol | 1.52 ± 0.087 kcal/mol
SAGGSAGMPKVRIPIEEDPENGNILIRVKMPNSGREHEYHIPGNLKEAKENFEDHFGFDITDVEIWSAGGSA [r15_101_TrROS] | -0.0816 ± 0.38 kcal/mol | 0.364 ± 0.23 kcal/mol | -0.984 ± 0.58 kcal/mol
SAGGSAGMPSVTPVTVQMKGSREEAEAVAEELIEELRAKDPSVKVEAVEFSELPDGTYRVTITVTNSAGGSA [r15_718_JUSTAS] | 3.49 ± 0.054 kcal/mol | 3.71 ± 0.12 kcal/mol | 3.36 ± 0.057 kcal/mol
SAGGSAGMTPVSEAVVPGPNVTTLTTYRDPSSSALITPVTTTPPDGVPVTTTTLDLGSSTVTLSTTSAGGSA [r15_993_JUSTAS] | 0.97 ± 0.082 kcal/mol | 1.06 ± 0.053 kcal/mol | 0.583 ± 0.21 kcal/mol
SAGGSAGNPKPVVLEVEVVLDIPPENPDVLRAQAEAVARALAKPGLRVEVLDYDPDKAAFTIRITGSAGGSA [r15_563_TrMRF] | 1.89 ± 0.077 kcal/mol | 1.71 ± 0.039 kcal/mol | 1.84 ± 0.064 kcal/mol
SAGGSAGPALEIAKALTELYGAEEVTILDVHPDGYVHLHVRAVDYDDGEPVERELDVIFPIAPDDGSAGGSA [r15_646_TrMRF] | 1.18 ± 0.11 kcal/mol | 0.164 ± 0.06 kcal/mol | 1.52 ± 0.037 kcal/mol
SAGGSAGPDPKNKKIKVKVETFYLEDFGLKVEKIYIEGTGKPLLVFYFPDGSKLIINEDGTVKLIESAGGSA [r15_617_TrMRF] | 2.89 ± 0.23 kcal/mol | 1.79 ± 0.35 kcal/mol | 3.33 ± 0.14 kcal/mol
SAGGSAGPLERKVIVRTAPYTSPEEGEAYAEETKLAIASKLPESEKVTVEVTWDPETNTVTATIVSSAGGSA [r15_981_JUSTAS] | 0.722 ± 0.16 kcal/mol | -0.491 ± 0.28 kcal/mol | 1.14 ± 0.092 kcal/mol
SAGGSAGPMSVKEYEFEAVVPPGEEEAWVEEYIKKEFKSKIVKIEVKREKLPDGTYRVPVKITVKESAGGSA [r15_138_JUSTAS] | 0.775 ± 0.079 kcal/mol | 0.433 ± 0.029 kcal/mol | 0.998 ± 0.12 kcal/mol
SAGGSAGPSSKPIPLYVLFLEVTKPGGEKLPLVKLVKSPEEALKIAEEIASKGYEVKLVLAPASEISAGGSA [r15_906_TrMRF] | 2.88 ± 0.084 kcal/mol | 2.74 ± 0.081 kcal/mol | 2.92 ± 0.07 kcal/mol
SAGGSAGSGFEEEAAAAFAASAGAMTLTVVEREPDSYTVATVTRTPGTGAPTVTVTTLSPETLAAASAGGSA [r15_156_JUSTAS] | 0.701 ± 0.12 kcal/mol | 0.904 ± 0.048 kcal/mol | 0.425 ± 0.13 kcal/mol
SAGGSAGVLEAVVFNPETGTFSVIPAAVLEKAFAANPADTELTFTLKDKPVKVFVFPGPGLAVVTGSAGGSA [r15_350_TrMRF] | 1.45 ± 0.053 kcal/mol | 1.14 ± 0.018 kcal/mol | 1.56 ± 0.061 kcal/mol
SAGGSAGVPPGGRVRVLVYNPLTGEVREVELPVGSLEEFLRGANLPAPLPDGRPAPVVVEILEVEPSAGGSA [r15_797_TrMRF] | 2.64 ± 0.36 kcal/mol | 1.77 ± 0.14 kcal/mol | 3.11 ± 0.081 kcal/mol
SAGGSAIDPRLLKLPKVKVEILSVEPVTGEDDKPFFVAKVKTDLEPGFYAYIILDPETGKIVKVFDSAGGSA [r15_66_TrMRF] | 1.4 ± 0.072 kcal/mol | 1.19 ± 0.038 kcal/mol | 1.57 ± 0.093 kcal/mol
SAGGSAIEIEPAPDNVLVVTADLPPNVPAEKLVEALKDLIPDVEFETSSSADGRHVIVLRLPPDVFSAGGSA [r15_1047_TrMRF] | 1.05 ± 0.07 kcal/mol | 1.05 ± 0.044 kcal/mol | 0.961 ± 0.06 kcal/mol
